One molecule from US20140274782A1 (Stanford University, published 2014) can be followed below.

What all share (assay): ProtoArray, GST-treated control array;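 also: human protein microarray (about 9500 recombinant proteins) incubated overnight with GST alone plus SAM cofactor as the negative control for G9a SET domain methylation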
The target in assay [1] is T1, C2orf43-chromosome 2 open reading frame 43 (C2orf43) (human, UniProt Q9H6V9 1-325, limits assumed).
T1 sequence (looked up): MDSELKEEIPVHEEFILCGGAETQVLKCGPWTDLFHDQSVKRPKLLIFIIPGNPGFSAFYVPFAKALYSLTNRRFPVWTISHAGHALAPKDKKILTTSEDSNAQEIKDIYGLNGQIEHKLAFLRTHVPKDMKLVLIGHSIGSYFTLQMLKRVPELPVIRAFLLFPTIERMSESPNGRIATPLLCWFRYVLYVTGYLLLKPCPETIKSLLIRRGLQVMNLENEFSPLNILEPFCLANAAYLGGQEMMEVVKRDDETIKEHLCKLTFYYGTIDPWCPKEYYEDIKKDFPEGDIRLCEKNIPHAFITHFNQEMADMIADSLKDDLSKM

Assay [2] deals with T2, CNTD1-Cyclin N-terminal domain-containing protein 1 (human, UniProt Q8N815 1-330).
T2 sequence: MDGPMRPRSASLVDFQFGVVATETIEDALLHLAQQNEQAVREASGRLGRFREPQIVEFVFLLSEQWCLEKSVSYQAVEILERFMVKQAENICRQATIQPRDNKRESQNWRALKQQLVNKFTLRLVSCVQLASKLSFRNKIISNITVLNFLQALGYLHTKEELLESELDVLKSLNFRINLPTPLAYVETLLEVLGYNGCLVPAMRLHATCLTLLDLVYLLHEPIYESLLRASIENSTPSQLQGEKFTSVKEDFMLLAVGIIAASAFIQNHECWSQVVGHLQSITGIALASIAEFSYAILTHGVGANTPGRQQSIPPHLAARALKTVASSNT

Assay [3] concerns the target CTSZ-Cathepsin Z (human, UniProt Q9UBR2 24-303, limits assumed).
The target in assay [4] is T3, C12orf60-Uncharacterized protein C12orf60 (human, UniProt Q5U649 1-245).
T3 sequence (looked up): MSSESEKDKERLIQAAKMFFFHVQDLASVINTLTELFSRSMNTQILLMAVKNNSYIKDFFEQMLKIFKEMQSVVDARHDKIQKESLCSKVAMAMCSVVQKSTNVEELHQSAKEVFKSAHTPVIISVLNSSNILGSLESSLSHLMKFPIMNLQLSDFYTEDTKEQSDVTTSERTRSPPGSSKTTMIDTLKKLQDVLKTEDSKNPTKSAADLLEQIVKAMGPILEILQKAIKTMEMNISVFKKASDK

For assay [5], the target named is T4, RAB7B-RAB7B, member RAS oncogene family (RAB7B) (human, UniProt Q96AH8 1-199).
T4 sequence (looked up): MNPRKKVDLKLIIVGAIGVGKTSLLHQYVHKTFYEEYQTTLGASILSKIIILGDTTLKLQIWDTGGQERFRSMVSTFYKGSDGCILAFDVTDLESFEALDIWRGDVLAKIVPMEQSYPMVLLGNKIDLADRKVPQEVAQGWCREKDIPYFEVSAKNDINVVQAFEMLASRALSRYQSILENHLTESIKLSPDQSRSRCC

Assay [6] has as its target T5, GAL-galanin prepropeptide (GAL) (human, UniProt P22466 1-123, limits assumed).
T5 sequence (looked up): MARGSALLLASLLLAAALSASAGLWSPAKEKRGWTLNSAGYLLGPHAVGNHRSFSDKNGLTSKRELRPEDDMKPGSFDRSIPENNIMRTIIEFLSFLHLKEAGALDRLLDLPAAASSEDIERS

For assay [7], the target named is T6, BHMT-betaine-homocysteine methyltransferase (BHMT) (human, UniProt Q93088 1-406).
T6 sequence (looked up): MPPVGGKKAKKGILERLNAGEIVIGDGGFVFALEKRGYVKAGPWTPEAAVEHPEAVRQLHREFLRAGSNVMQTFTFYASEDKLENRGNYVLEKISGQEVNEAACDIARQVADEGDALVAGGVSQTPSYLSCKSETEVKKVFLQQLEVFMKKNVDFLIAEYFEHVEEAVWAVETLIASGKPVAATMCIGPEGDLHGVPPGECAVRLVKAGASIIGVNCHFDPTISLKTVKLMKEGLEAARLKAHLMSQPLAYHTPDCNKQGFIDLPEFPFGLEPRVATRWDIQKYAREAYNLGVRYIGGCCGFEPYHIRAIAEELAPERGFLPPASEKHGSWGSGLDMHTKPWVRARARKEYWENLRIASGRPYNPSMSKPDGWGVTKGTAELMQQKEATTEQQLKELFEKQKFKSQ

Assay [8] concerns the target T7, TCTA-T-cell leukemia translocation altered gene (TCTA) (human, UniProt P57738 1-103).
T7 sequence (looked up): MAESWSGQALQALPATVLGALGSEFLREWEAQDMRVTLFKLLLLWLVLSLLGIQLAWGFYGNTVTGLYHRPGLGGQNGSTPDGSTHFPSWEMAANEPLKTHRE

For assay [9], the target named is SERPINB2-serpin peptidase inhibitor, clade B (ovalbumin), member 2 (SERPINB2) (human, UniProt P05120 1-415).
SERPINB2-serpin peptidase inhibitor, clade B (ovalbumin), member 2 (SERPINB2), sequence (P05120 whole entry): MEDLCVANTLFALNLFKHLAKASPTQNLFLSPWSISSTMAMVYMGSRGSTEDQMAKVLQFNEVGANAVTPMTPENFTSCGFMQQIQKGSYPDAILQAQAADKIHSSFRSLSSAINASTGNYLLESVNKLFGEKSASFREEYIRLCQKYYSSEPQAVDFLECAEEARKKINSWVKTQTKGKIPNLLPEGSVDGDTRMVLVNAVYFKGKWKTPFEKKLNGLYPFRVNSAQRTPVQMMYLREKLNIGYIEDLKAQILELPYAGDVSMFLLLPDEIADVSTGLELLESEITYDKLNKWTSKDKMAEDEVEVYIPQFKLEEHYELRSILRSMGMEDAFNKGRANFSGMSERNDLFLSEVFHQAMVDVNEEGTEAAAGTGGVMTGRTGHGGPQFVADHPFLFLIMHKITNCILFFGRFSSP
In assay [10] the target is N/A-cDNA clone IMAGE:4623222, partial cds (human).
For assay [11], the target named is T8, RAB33B-RAB33B, member RAS oncogene family (RAB33B) (human, UniProt Q9H082 1-229).
T8 sequence (looked up): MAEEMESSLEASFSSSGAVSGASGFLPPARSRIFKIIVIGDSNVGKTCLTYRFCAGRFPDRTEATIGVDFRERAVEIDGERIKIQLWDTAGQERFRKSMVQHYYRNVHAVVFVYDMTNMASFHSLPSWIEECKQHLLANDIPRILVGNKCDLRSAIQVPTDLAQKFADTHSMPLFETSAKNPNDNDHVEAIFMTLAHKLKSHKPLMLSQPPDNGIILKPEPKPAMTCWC

Assay [12] addresses T9, CLDN15-claudin 15 (CLDN15) (human, UniProt P56746 1-228).
T9 sequence (looked up): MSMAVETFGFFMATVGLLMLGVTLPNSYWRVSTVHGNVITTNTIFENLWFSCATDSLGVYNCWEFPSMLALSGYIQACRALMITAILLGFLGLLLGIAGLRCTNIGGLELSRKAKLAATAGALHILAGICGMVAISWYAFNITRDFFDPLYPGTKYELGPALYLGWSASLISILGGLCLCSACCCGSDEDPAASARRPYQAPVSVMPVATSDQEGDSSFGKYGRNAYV

CTSZ-Cathepsin Z, sequence (Q9UBR2 24-303 limits assumed): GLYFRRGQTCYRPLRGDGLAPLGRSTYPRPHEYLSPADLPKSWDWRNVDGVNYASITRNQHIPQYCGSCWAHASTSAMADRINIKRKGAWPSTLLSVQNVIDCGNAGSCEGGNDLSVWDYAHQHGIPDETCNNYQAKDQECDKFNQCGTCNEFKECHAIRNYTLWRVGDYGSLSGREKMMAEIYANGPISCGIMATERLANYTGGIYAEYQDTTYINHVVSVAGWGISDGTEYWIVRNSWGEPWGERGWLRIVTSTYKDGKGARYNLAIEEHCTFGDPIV

B1: 3× Flag-3×MBT (designed binder)
chain: EEWSSSQPATGEKKECWSWESYLEEQKAITAPVSLFQDSQAVTHNKNGFKLGMKLEGIDPQHPSMYFILTVAEVCGYRLRLHFDGYSECHDFWVNANSPDIHPAGWFEKTGHKLQPPKGYKEEEFSWSQYLRSTRAQAAPKHLFVSQSHSPPPLGFQVGMKLEAVDRMNPSLVCVASVTDVVDSRFLVHFDNWDDTYDYWCDPSSPYIHPVGWCQKQGKPLTPPQDYPDPDNFCWEKYLEETGASAVPTWAFKVRPPHSFLVNMKLEAVDRRNPALIRVASVEDVEDHRIKIHFDGWSHGYDFWIDADHPDIHPAGWCSKTGHPLQPPLGPREPSSASPGG
notes: also called Flag-tagged 3×MBT; 3xFlag-3xMBT; not shown: made by PreScission cleavage of GST-3× Flag-3×MBT
For the molecule B1, the “GST Average SNR” value in assay [1] is -0.147; in assay [2], 0.567; in assay [3], 1.28; in [4] it was -0.007; in assay [5], -0.309; in assay [6], -0.0625. Besides, the “GST Average SNR” value is 1.44 in [7]; 1.18 in assay [8]; 0.54 in assay [9]; 1.04 in assay [10]; 0.0035 in assay [11]; -0.296 in assay [12].
